Assay results as given in article PMC7979805.

Biological target: endogenous actin of neonatal rat cardiomyocytes (rat (endogenous in neonatal rat cardiomyocytes)) (UniProt P68035)
Assay: co-sedimentation; G-actin/F-actin fractionation of lysates of neonatal rat cardiomyocytes transduced with mCherry or mCherry-Tpm1.1 (G-Actin/F-actin In Vivo Assay Biochem Kit); ultracentrifugation 100,000 x g, 37 °C, 1 h; supernatant and pellet immunoblotted

| percent of CAP2 in the F-actin fraction (cells expressing mCherry) [%] | percent of CAP2 in the F-actin fraction (cells expressing mCherry-Tpm1.1) [%] | percent of Tmod1 in the F-actin fraction (cells expressing mCherry) [%] | percent of Tmod1 in the F-actin fraction (cells expressing mCherry-Tpm1.1) [%] | Substance |
| --- | --- | --- | --- | --- |
| 28.6 | 25 | – | – | endogenous CAP2 of neonatal rat cardiomyocytes (from UniProt P52481 1-477) (natural protein) |
| – | – | 42.7 | 65.6 | endogenous Tmod1 of neonatal rat cardiomyocytes (from UniProt P70567 1-359) (natural protein) |
